From article PMC7709199, “Homogeneously N-glycosylated proteins derived from the GlycoDelete HEK293 cell line enable diffraction-quality crystallogenesis” (Acta Crystallographica. Section D, Structural Biology, 2020)

Key:
X-ray diffraction = settings: glycan changed form; control: HEK293T-expressed protein
[1] = achievable concentration for crystal screens; settings: glycan lost; control: undigested HEK293S MGAT1−/− material
[2] = achievable concentration of CSF-1 complex; settings: glycan changed form; control: wild-type (HEK293T) material
[3] = X-ray diffraction of CSF-1 complex crystals; settings: glycan changed form; control: HEK293T-expressed receptor
initial expression tests = settings: glycan lost; control: other CSF-1RD1–D3 constructs
[4] = target: the molecule itself; assay: crystal structure; DSCAM_(Ig7–Ig9) from HEK293 GlycoDelete cells; space group C2, one molecule in the asymmetric unit, oligomer by crystallographic symmetry; 0.2 M calcium acetate, 10% PEG 8000, 0.1 M HEPES pH 7.5, 3% glycerol; 1.85 Å
[5] = target: the molecule itself; assay: SEC; size-exclusion chromatography of IMAC-purified murine IL-12B from GD cells

Down syndrome cell-adhesion molecule (DSCAMIg7–Ig9): GlycoDelete expression
other: crystal diffraction quality, other: diffraction limit (X-ray diffraction): increases, 1.85 vs ∼8

colony-stimulating factor 1 receptor (CSF-1RD1–D3): EndoH digestion
other: solubility [1]: decreases

colony-stimulating factor 1 receptor (CSF-1RD1–D3): GlycoDelete expression
other: solubility [2]: no change

colony-stimulating factor 1 receptor (CSF-1RD1–D3): HEK293S MGAT1−/− expression
other: crystal diffraction quality, other: diffraction limit [3]: increases, 4.5 vs did not diffract

colony-stimulating factor 1 receptor (CSF-1RD1–D3): N73Q
expression_or_secretion (initial expression tests): abolishes

colony-stimulating factor 1 receptor (CSF-1RD1–D3): N153Q
expression_or_secretion (initial expression tests): no change

colony-stimulating factor 1 receptor (CSF-1RD1–D3): N240Q
expression_or_secretion (initial expression tests): no change

colony-stimulating factor 1 receptor (CSF-1RD1–D3): N275Q
expression_or_secretion (initial expression tests): no change

B1: human Down syndrome cell-adhesion molecule fragment DSCAM_(Ig7–Ig9) (domain or fragment)
chain: TVPPFIQPFEFPRFSIGQRVFIPCVVVSGDLPITITWQKDGRPIPGSLGVTIDNIDFTSSLRISNLSLMHNGNYTCIARNEAAAVEHQSQLIVRVPPKFVVQPRDQDGIYGKAVILNCSAEGYPVPTIVWKFSKGAGVPQFQPIALNGRIQVLSNGSLLIKHVVEEDSGYYLCKVSNDVGADVSKSMYLTVKIPAMITSYPNTTLATQGQKKEMSCTAHGEKPIIVRWEKEDRIINPEMARYLVSTKEVGEEVISTLQILPTVREDSGFFSCHAINSYGEDRGIIQLTVQEE
modifications: GlycoDelete N-glycan stubs at Asn666, Asn710, Asn748 and Asn795 (full Neu5AcGalGlcNAc at Asn795)
notes: one-residue cloning scar (Thr594) at the N-terminus; Down syndrome cell-adhesion molecule (DSCAM), human, UniProt O60469, residues 595–884 (Val595–Glu884), immunoglobulin domains Ig7, Ig8 and Ig9; one-residue cloning scar (Glu885) before the C-terminal 6×His tag; Expressed from pXLG behind a 34-residue signal peptide of pregnancy-specific glycoprotein 1 (UniProt P11464); The signal peptide is not …
binding result [4]: binds

B2: murine IL-12B (natural protein, UniProt P43432 23-335, looked up)
chain: MWELEKDVYVVEVDWTPDAPGETVNLTCDTPEEDDITWTSDQRHGVIGSGKTLTITVKEFLDAGQYTCHKGGETLSHSHLLLHKKENGIWSTEILKNFKNKTFLKCEAPNYSGRFTCSWLVQRNMDLKFNIKSSSSSPDSRAVTCGMASLSAEKVTLDQRDYEKYSVSCQEDVTCPTAEETLPIELALEARQQNKYENYSTSFFIRDIIKPDPPKNLQMKPLKNSQVEVSWEYPDSWSTPHSYFSLKFFVRIQRKKEKMKETEEGCNQKGAFLVEKTSTEVQCKGGNVCVQAQDRYYNSSCSKWACVPCRVRS
modifications: immature N-linked glycan on Asn220 (modelled as Man4GlcNAc2)
notes: signal peptide in the construct; The dimeric SEC fractions (disulfide-linked homodimer through Cys197) were pooled, polished on Mono Q and crystallised; also called IL-12p40 (monomer); IL-12p80 (homodimer); source: HEK293 GlycoDelete cells, transfected, secreted; purified (IMAC, SEC, Mono Q anion exchange)
stoichiometry N [5]: 2
